Reference: PMC4330371, “Interaction between the RNA-dependent ATPase and poly(A) polymerase subunits of the TRAMP complex is mediated by short peptides and important for snoRNA processing” (Nucleic Acids Research, 2015)
“Also recorded” adds a separate entry of the source. No end group written: not given here.

B1: Trf5 fragment 53-124: yeast two-hybrid construct of Trf5 residues 53–124 (protein, UniProt P48561 53-124, looked up, fragment)
chain: AIDVEDDDTFGNLVLMENDKSDVDIPVIEEVTSSEDEQRAESSKRNNSLEDNQDFIAFSDSSEDETEQIKED
modifications: yeast two-hybrid fusion
B2: Trf5 fragment 83-199: yeast two-hybrid construct of Trf5 residues 83–199 (protein, UniProt P48561 83-199, looked up, fragment)
chain: VTSSEDEQRAESSKRNNSLEDNQDFIAFSDSSEDETEQIKEDDDERSSFLLTDEHEVSKLTSQQSLNTESACNVEYPWIRNHCHSKQRRIADWLTSEIKDFVHYISPSKNEIKCRNR
modifications: yeast two-hybrid fusion
B3: Trf5 fragment 118-199: yeast two-hybrid construct of Trf5 residues 118–199 (protein, UniProt P48561 118-199, looked up, fragment)
chain: TEQIKEDDDERSSFLLTDEHEVSKLTSQQSLNTESACNVEYPWIRNHCHSKQRRIADWLTSEIKDFVHYISPSKNEIKCRNR
modifications: yeast two-hybrid fusion
B4: Trf5 fragment 53-169: yeast two-hybrid construct of Trf5 residues 53–169 (protein, UniProt P48561 53-169, looked up, fragment)
chain: AIDVEDDDTFGNLVLMENDKSDVDIPVIEEVTSSEDEQRAESSKRNNSLEDNQDFIAFSDSSEDETEQIKEDDDERSSFLLTDEHEVSKLTSQQSLNTESACNVEYPWIRNHCHSKQ
modifications: yeast two-hybrid fusion
B5: Trf5 fragment 53-139: yeast two-hybrid construct of Trf5 residues 53–139 (protein, UniProt P48561 53-139, looked up, fragment)
chain: AIDVEDDDTFGNLVLMENDKSDVDIPVIEEVTSSEDEQRAESSKRNNSLEDNQDFIAFSDSSEDETEQIKEDDDERSSFLLTDEHEV
modifications: yeast two-hybrid fusion
B6: Trf5 fragment 98-199: yeast two-hybrid construct of Trf5 residues 98–199 (protein, UniProt P48561 98-199, looked up, fragment)
chain: NNSLEDNQDFIAFSDSSEDETEQIKEDDDERSSFLLTDEHEVSKLTSQQSLNTESACNVEYPWIRNHCHSKQRRIADWLTSEIKDFVHYISPSKNEIKCRNR
modifications: yeast two-hybrid fusion
B7: Trf5 fragment 68-199: yeast two-hybrid construct of Trf5 residues 68–199 (protein, UniProt P48561 68-199, looked up, fragment)
chain: MENDKSDVDIPVIEEVTSSEDEQRAESSKRNNSLEDNQDFIAFSDSSEDETEQIKEDDDERSSFLLTDEHEVSKLTSQQSLNTESACNVEYPWIRNHCHSKQRRIADWLTSEIKDFVHYISPSKNEIKCRNR
modifications: yeast two-hybrid fusion
B8: full-length TAP-tagged Trf5: TAP-tagged full-length Trf5 expressed from the endogenous TRF5 promoter (protein)
chain: MTRLKAKYSPTKGKRKEDKHTKRMRKSSFTRTQKMLEVFNDNRSHFNKYESLAIDVEDDDTFGNLVLMENDKSDVDIPVIEEVTSSEDEQRAESSKRNNSLEDNQDFIAFSDSSEDETEQIKEDDDERSSFLLTDEHEVSKLTSQQSLNTESACNVEYPWIRNHCHSKQRRIADWLTSEIKDFVHYISPSKNEIKCRNRTIDKLRRAVKELWSDADLHVFGSFATDLYLPGSDIDCVVNSRNRDKEDRNYIYELARHLKNKGLAIRMEVIVKTRVPIIKFIEPQSQLHIDVSFERTNGLEAAKLIREWLRDSPGLRELVLIIKQFLHSRRLNNVHTGGLGGFTVICLVYSFLNMHPRIKSNDIDVLDNLGVLLIDFFELYGKNFGYDDVAISISDGYASYIPKSCWRTLEPSRSKFSLAIQDPGDPNNNISRGSFNMKDIKKAFAGAFELLVNKCWELNSATFKDRVGKSILGNVIKYRGQKRDFNDERDLVQNKAIIENERYHKRRTRIVQEDLFINDTEDLPVEEIYKLDEPAKKKQKAKKDKREGEIKKSAIPSPPPDFGVSRSKLKRKVKKTDQGSLLHQNNLSIDDLMGLSENDQESDQDQKGRDTPSGQDEKSPLETKTVDAQTRRDYWLSKGQAL
modifications: left off: TAP, end not stated, kept
notes: TAP-tagged full-length Trf5 expressed from the endogenous TRF5 promoter
B9: Trf5 fragment 53-184: yeast two-hybrid construct of Trf5 residues 53–184 (protein, UniProt P48561 53-184, looked up, fragment)
chain: AIDVEDDDTFGNLVLMENDKSDVDIPVIEEVTSSEDEQRAESSKRNNSLEDNQDFIAFSDSSEDETEQIKEDDDERSSFLLTDEHEVSKLTSQQSLNTESACNVEYPWIRNHCHSKQRRIADWLTSEIKDFV
modifications: yeast two-hybrid fusion
B10: Trf5 fragment 53-154: yeast two-hybrid construct of Trf5 residues 53–154 (protein, UniProt P48561 53-154, looked up, fragment)
chain: AIDVEDDDTFGNLVLMENDKSDVDIPVIEEVTSSEDEQRAESSKRNNSLEDNQDFIAFSDSSEDETEQIKEDDDERSSFLLTDEHEVSKLTSQQSLNTESAC
modifications: yeast two-hybrid fusion
B11: Trf5 fragment 53-199: yeast two-hybrid construct of Trf5 residues 53–199 (protein)
chain: AIDVEDDDTFGNLVLMENDKSDVDIPVIEEVTSSEDEQRAESSKRNNSLEDNQDFIAFSDSSEDETEQIKEDDDERSSFLLTDEHEVSKLTSQQSLNTESACNVEYPWIRNHCHSKQRRIADWLTSEIKDFVHYISPSKNEIKCRNR
modifications: left off: Gal4 activation domain (from the vector pOAD), end not stated, kept

Tests used:
Type in all cases: cell-based, Saccharomyces cerevisiae
Mtr4-archless = assay: Yeast two-hybrid interaction with Mtr4-archless; conditions: growth on SC-ADE and SC-HIS
Source text: (§1) The yeast two-hybrid assays used plasmids pOBD2 and pOAD that were previously described ([28]). The yeast two-hybrid plasmids for Mtr4 (pAV745), Mtr4-archless (pAV746) and Trf5–53–199 (pAV744) have been previously described as have the positive controls that contain MEC3 and RAD17 ([29]). Yeast two-hybrid plasmids with Trf5 residues 68–199 (pAV759), 83–199 (pAV760), 98–199 (pAV761), 118–199 (pAV766), 53–184 (pAV762), 53–169 (pAV763), 53–154 (pAV764), 53–139 (pAV767) and 53–124 (pAV768) were generated similarly to pAV744. Briefly, these regions of TRF5 were PCR amplified with primers that contain PvuII and PstI sites, digested with those restriction enzymes and cloned into pOAD. The yeast two-hybrid plasmids with Trf5 residues 98–117 were generated by cloning oligonucleotides for this region into the PvuII and PstI sites of pOAD.
(§2) Strain trf4Δ/trf5Δ/pRS416-TRF4 has been previously described (MATa, leu2-Δ0, ura3-Δ0, his3-Δ1, met15-Δ0, trf4Δ::NAT, trf5Δ::KAN; [33]). The TRF5 and trf5-Δ98–117 plasmids were introduced by transformation and selection on media lacking leucine. Transformants were then plated on media containing 5FOA to select for cells that had lost the pRS416-TRF4 plasmid. The rrp44-exo^−, rrp44-endo^− and rrp6Δ::KAN strains are isogenic to this strain and have been previously described ([31]). […]

Mtr4 = assay: Yeast two-hybrid interaction with Mtr4; parameters: key to Y2H interaction with Mtr4: +: growth on both SC-ADE and SC-HIS supplemented with 10 mM 3-AT; -: a failure to interact; conditions: for yeast two-hybrid interaction with Mtr4: full-length Mtr4, growth on SC-ADE and SC-HIS; for Y2H interaction with Mtr4: Trf5 fragments, growth on SC-ADE and SC-HIS supplemented with 10 mM 3-AT
Source text: as §1
Strain trf4Δ/trf5Δ/pRS416-TRF4 has been previously described (MATa, leu2-Δ0, ura3-Δ0, his3-Δ1, met15-Δ0, trf4Δ::NAT, trf5Δ::KAN; [33]). The TRF5 and trf5-Δ98–117 plasmids were introduced by transformation and selection on media lacking leucine. Transformants were then plated on media containing 5FOA to select for cells that had lost the pRS416-TRF4 plasmid. The rrp44-exo^−, rrp44-endo^− and rrp6Δ::KAN strains are isogenic to this strain and have been previously described ([31]). Yeast two-hybrid strains PJ69–4α and PJ69–4a have been previously described ([28],[34]). They are MATα and MATa, respectively, and in addition are both trp1–901, leu2–3,112, ura3–52, his3–200, gal4Δ, gal80Δ, LYS2::GAL1-HIS3, GAL2-ADE2, met2::GAL7-lacZ.
Yeast two-hybrid assays were carried out as previously described ([29]). Briefly, the MTR4 TRP1 plasmids were transformed into PJ69–4α and the TRF5 LEU2 plasmids were transformed into PJ69–4a. Transformants were crossed to each other and diploids that contain both plasmids were selected on SC-TRP-LEU. These diploids were then serially diluted and spotted on SC-TRP-LEU, SC-ADE and SC-HIS media.

endogenous Mtr4 = assay: Co-purification of endogenous Mtr4 with TAP-tagged Trf5; conditions: TAP-tagged Trf5 proteins expressed from endogenous promoter, IgG Sepharose, 2 h at 4°C, IP50/IP150 buffer pH 7.5, western blot with anti-Mtr4
Source text: The Trf5-Δ98–117-TAP and Trf5-TAP plasmids are low copy (CEN) plasmids derived from pRS415 ([30]) with the endogenous TRF5 promoter driving expression of Trf5 or Trf5-Δ98–117. The trf5-Δ98–117-TAP plasmid (pAV854) was generated by ligation of three DNA fragments. The first fragment contained the promoter and 5′ end of TRF5 and was generated by PCR with oligonucleotides oAV906 ([…]) and oAV870 ([…]) and digestion with NotI and SpeI. The second fragment contained the 3′ end of TRF5 and was generated by PCR with oligonucleotides oAV871 ([…]) and oAV869 ([…]) and digestion with SpeI and PstI. The third fragment was pAV476 ([31]) digested with NotI and PstI. The TRF5-TAP plasmid (pAV885) was subsequently generated by replacing an XbaI to BstAPI fragment that contained the internal deletion with the corresponding wild-type sequence.
as §2

| Molecule | Y2H interaction with Mtr4 (Mtr4) | also measured |
| --- | --- | --- |
| Trf5 98–117: yeast two-hybrid construct with Trf5 residues 98–117, conserved 20 amino acid peptide (NNSLEDNQDFIAFSDSSEDE; also: fused to Gal4 activation domain, end not given here) |  | yeast two-hybrid interaction with Mtr4-archless (Mtr4-archless): interacts both with full-length and archless Mtr4; yeast two-hybrid interaction with Mtr4 (Mtr4): interacts with Mtr4; yeast two-hybrid interaction with Mtr4 (Mtr4; listed as amino acids 98–117 of Trf5): sufficient for interaction with Mtr4; also recorded: indeed interacted with Mtr4 |
| B1 | + |  |
| B2 | + |  |
| B3 | - |  |
| B4 | + |  |
| B5 | + |  |
| B6 | + |  |
| B7 | + |  |
| B8 |  | co-purification of endogenous Mtr4 (words) (endogenous Mtr4): results in co-purification of endogenous Mtr4; co-purification of endogenous Mtr4 (words) (endogenous Mtr4; listed as full-length Trf5): readily detectable |
| B9 | + |  |
| B10 | + |  |
| B11 | + |  |
